These results are taken from patent US20080292609A1, “Use of Arginase in Combination with 5FU and Other Compounds for Treatment of Human Malignancies” (priority 2007, published 2008).

The nature of series [1]: Arginase specific activity. Format: biochemical. The note with it: purified arginase sample, or after pegylation with mPEG-SPA MW 5,000 (mole ratio 1:50). The protocol: The purified Arginase as prepared using the methods described above was used for pegylation. Using the previous examples to illustrate the method, an arginase sample with specific activity=518 I.U./mg was dissolved in PBS buffer before carrying out pegylation.
The mPEG-SPA (cat. no. 2M4MOH01, Nektar, USA), MW 5,000 (5.82 g) was added into 555 ml of the purified Arginase (813.64 mg, 1.466 mg/ml) solution slowly in a 1 L beaker and then stirred for 2 h 40 min at room temperature (mole ratio of Arginase:mPEG-SPA=1:50). The mixture was then dialyzed extensively by ultra-dialysis against 15 L of PBS buffer using the F50(S) capillary dialyzer (Fresenius Medical Care, Bad Homburg, Germany) to remove all the unincorporated PEG. The mPEG-SPA uses amino groups of lysines and the N-terminus of the protein as the site of modification. In this example, the measured specific activity of the pegylated Arginase was as high as 592 I.U./mg.

Series [2] in a line: ½-life determination of pegylated Arginase in vitro in human blood plasma. The following applies: 37° C., 0.24 mg/ml pegylated Arginase. Format: in vitro ADME. The protocol:
As used herein, the term “half-life” (½-life) refers to the time that would be required for the concentration of the Arginase in human plasma in vitro, to fall by half.
Purified Arginase (1 mg) was dissolved in 1 ml of 125 mM borate buffer solution (pH 8.3) on ice. Activated PEG (mPEG-SPA, MW 5,000) (7.14 mg) was added into the protein solution slowly at a mole ratio of Arginase:PEG=1:50. The mixture was stirred on ice for 2.5 h.
Pegylated Arginase (305.6 μl) at a concentration of 1 mg/ml was added into human plasma (1 ml) and the final concentration of pegylated Arginase was 0.24 mg/ml. The mixture was divided into 20 aliquots in eppendorf tubes (65 μl mixture in each eppendorf tube) and then incubated at 37° C. A 1-2 μl portion of the mixture from each eppendorf tube was used to test the Arginase activity. In this example, the ½-life was determined to be approximately 3 days. It took about 3 days to reduce the relative activity from 100% to 50%.

B1: pegylated Arginase: Arginase I modified by pegylation with mPEG-SPA MW 5,000 to increase stability and minimize immunoreactivity (protein, UniProt P05089 1-322, looked up)
Arginase-1: MSAKSRTIGIIGAPFSKGQPRGGVEEGPTVLRKAGLLEKLKEQECDVKDYGDLPFADIPNDSPFQIVKNPRSVGKASEQLAGKVAEVKKNGRISLVLGGDHSLAIGSISGHARVHPDLGVIWVDAHTDINTPLTTTSGNLHGQPVSFLLKELKGKIPDVPGFSWVTPCISAKDIVYIGLRDVDPGEHYILKTLGIKYFSMTEVDRLGIGKVMEETLSYLLGRKKRPIHLSFDVDGLDPSFTPATGTPVVGGLTYREGLYITEEIYKTGLLSGLDIMEVNPSLGKTPEEVTRTVNTAVAITLACFGLAREGNHKPIDYLNPPK
modifications: mPEG-SPA 5 kDa
Consider B1, for which the specific activity in series [1] stood at 592 I.U./mg. For the same molecule, the “½-life (time for relative Arginase activity to fall from 100% to 50%)” value in series [2] is “approximately 3 days”.

B2: arginase: Recombinant human Arginase I with N-terminal 6xHis tag (SEQ ID NO: 3), produced in B. subtilis LLC101 (protein, listed as Homo sapiens)
chain: MHHHHHHMSAKSRTIGIIGAPFSKGQPRGGVEEGPTVLRKAGLLEKLKEQECDVKDYGDLPFADIPNDSPFQIVKNPRSVGKASEQLAGKVAQVKKNGRISLVLGGDHSLAIGSISGHARVHPDLGVIWVDAHTDINTPLTTTSGNLHGQPVSFLLKELKGKIPDVPGFSWVTPCISAKDIVYIGLRDVDPGEHYILKTLGIKYFSMTEVDRLGIGKVMEETLSYLLGRKKRPIHLSFDVDGLDPSFTPATGTPVVGGLTYREGLYITEEIYKTGLLSGLDIMEVNPSLGKTPEEVTRTVNTAVAITLACFGLAREGNHKPIDYLNPPK
modifications: N-terminal 6xHis tag
With B2, the specific activity in series [1] is listed as 518 I.U./mg.
